From patent CN114591430A
Where “and” joins values, the source holds several entries; their conditions need not be identical. Identical values can stand only once.

Columns and labels:
CHO细胞裂解液 [1] = assay: sandwich ELISA, coat B2, detection biotin-B6, lysate 1 mg/ml
Vero细胞裂解液 [2] = assay: as above
HEK293细胞裂解液 [3] = assay: as above
牛血清白蛋白(BSA) (bovine) [4] = biological target: 牛血清白蛋白(BSA) (bovine) (UniProt P02769); assay: ELISA, BSA coated at 1 ug/ml, biotin-labelled antibody at dilution 64K, HRP-avidin
牛血清白蛋白(BSA) (bovine) [5] = biological target: 牛血清白蛋白(BSA) (bovine) (UniProt P02769); assay: indirect ELISA, BSA coated at 1 ug/ml, purified antibody at dilution 2K, HRP goat anti-mouse IgG
牛血清白蛋白(BSA) (bovine) [6] = biological target: 牛血清白蛋白(BSA) (bovine) (UniProt P02769); assay: sandwich ELISA, coat B2 2 ug/ml, BSA 6 ng/ml, detection biotin-B6 0.2 ug/ml
牛血清白蛋白(BSA) (bovine) [7] = biological target: 牛血清白蛋白(BSA) (bovine) (UniProt P02769); assay: indirect ELISA, BSA coated at 1 ug/ml, purified antibody at dilution 128K, HRP goat anti-mouse IgG
牛血清白蛋白(BSA) (bovine) [8] = biological target: 牛血清白蛋白(BSA) (bovine) (UniProt P02769); assay: sandwich ELISA, coat B2 2 ug/ml, BSA 1.5 ng/ml, detection biotin-B6 0.2 ug/ml, mean of A and B
牛血清白蛋白(BSA) (bovine) [9] = biological target: 牛血清白蛋白(BSA) (bovine) (UniProt P02769); assay: indirect ELISA, BSA coated at 1 ug/ml, purified antibody at dilution 4K, HRP goat anti-mouse IgG
牛血清白蛋白(BSA) (bovine) [10] = biological target: 牛血清白蛋白(BSA) (bovine) (UniProt P02769); assay: ELISA, BSA coated at 1 ug/ml, biotin-labelled antibody at dilution 1024K, HRP-avidin
牛血清白蛋白(BSA) (bovine) [11] = biological target: 牛血清白蛋白(BSA) (bovine) (UniProt P02769); assay: indirect ELISA, BSA coated at 1 ug/ml, purified antibody at dilution 16K, HRP goat anti-mouse IgG
牛血清白蛋白(BSA) (bovine) [12] = biological target: 牛血清白蛋白(BSA) (bovine) (UniProt P02769); assay: ELISA, BSA coated at 1 ug/ml, biotin-labelled antibody at dilution 16K, HRP-avidin
CHO细胞裂解液 [13] = assay: sandwich ELISA, coat B2, detection biotin-B6, lysate 15.63 ug/ml
Vero细胞裂解液 [14] = assay: as above
HEK293细胞裂解液 [15] = assay: as above
牛血清白蛋白(BSA) (bovine) [16] = biological target: 牛血清白蛋白(BSA) (bovine) (UniProt P02769); assay: sandwich ELISA, coat B2 2 ug/ml, BSA 1 ng/ml, detection biotin-B1 0.2 ug/ml
牛血清白蛋白(BSA) (bovine) [17] = biological target: 牛血清白蛋白(BSA) (bovine) (UniProt P02769); assay: sandwich ELISA, coat B2 2 ug/ml, BSA 0.75 ng/ml, detection biotin-B6 0.2 ug/ml, mean of A and B
牛血清白蛋白(BSA) (bovine) [18] = biological target: 牛血清白蛋白(BSA) (bovine) (UniProt P02769); assay: sandwich ELISA, coat B2 2 ug/ml, BSA 6 ng/ml, detection biotin-B6 0.2 ug/ml, mean of A and B
牛血清白蛋白(BSA) (bovine) [19] = biological target: 牛血清白蛋白(BSA) (bovine) (UniProt P02769); assay: ELISA, BSA coated at 1 ug/ml, biotin-labelled antibody at dilution 256K, HRP-avidin
牛血清白蛋白(BSA) (bovine) [20] = biological target: 牛血清白蛋白(BSA) (bovine) (UniProt P02769); assay: indirect ELISA, BSA coated at 1 ug/ml, purified antibody at dilution 1K, HRP goat anti-mouse IgG
牛血清白蛋白(BSA) (bovine) [21] = biological target: 牛血清白蛋白(BSA) (bovine) (UniProt P02769); assay: sandwich ELISA, coat B2 2 ug/ml, BSA 1 ng/ml, detection biotin-B3 0.2 ug/ml
牛血清白蛋白(BSA) (bovine) [22] = biological target: 牛血清白蛋白(BSA) (bovine) (UniProt P02769); assay: sandwich ELISA, coat B2 2 ug/ml, BSA 1 ng/ml, detection biotin-B6 0.2 ug/ml
牛血清白蛋白(BSA) (bovine) [23] = biological target: 牛血清白蛋白(BSA) (bovine) (UniProt P02769); assay: ELISA, BSA coated at 1 ug/ml, biotin-labelled antibody at dilution 2K, HRP-avidin
牛血清白蛋白(BSA) (bovine) [24] = biological target: 牛血清白蛋白(BSA) (bovine) (UniProt P02769); assay: ELISA, BSA coated at 1 ug/ml, biotin-labelled antibody at dilution 8K, HRP-avidin
CHO细胞裂解液 [25] = assay: sandwich ELISA, coat B2, detection biotin-B6, lysate 7.81 ug/ml
Vero细胞裂解液 [26] = assay: as above
HEK293细胞裂解液 [27] = assay: as above
CHO细胞裂解液 [28] = assay: sandwich ELISA, coat B2, detection biotin-B6, lysate 250 ug/ml
Vero细胞裂解液 [29] = assay: as above
HEK293细胞裂解液 [30] = assay: as above
牛血清白蛋白(BSA) (bovine) [31] = biological target: 牛血清白蛋白(BSA) (bovine) (UniProt P02769); assay: sandwich ELISA, coat B2 2 ug/ml, BSA 1.5 ng/ml, detection biotin-B6 0.2 ug/ml
牛血清白蛋白(BSA) (bovine) [32] = biological target: 牛血清白蛋白(BSA) (bovine) (UniProt P02769); assay: sandwich ELISA, coat B2 2 ug/ml, BSA 1 ng/ml, detection biotin-B4 0.2 ug/ml
牛血清白蛋白(BSA) (bovine) [33] = biological target: 牛血清白蛋白(BSA) (bovine) (UniProt P02769); assay: ELISA, BSA coated at 1 ug/ml, biotin-labelled antibody at dilution 32K, HRP-avidin
牛血清白蛋白(BSA) (bovine) [34] = biological target: 牛血清白蛋白(BSA) (bovine) (UniProt P02769); assay: sandwich ELISA, coat B2 2 ug/ml, BSA 24 ng/ml, detection biotin-B6 0.2 ug/ml
牛血清白蛋白(BSA) (bovine) [35] = biological target: 牛血清白蛋白(BSA) (bovine) (UniProt P02769); assay: ELISA, BSA coated at 1 ug/ml, biotin-labelled antibody at dilution 1K, HRP-avidin

UniProt P02769, sequence (P02769 25-607): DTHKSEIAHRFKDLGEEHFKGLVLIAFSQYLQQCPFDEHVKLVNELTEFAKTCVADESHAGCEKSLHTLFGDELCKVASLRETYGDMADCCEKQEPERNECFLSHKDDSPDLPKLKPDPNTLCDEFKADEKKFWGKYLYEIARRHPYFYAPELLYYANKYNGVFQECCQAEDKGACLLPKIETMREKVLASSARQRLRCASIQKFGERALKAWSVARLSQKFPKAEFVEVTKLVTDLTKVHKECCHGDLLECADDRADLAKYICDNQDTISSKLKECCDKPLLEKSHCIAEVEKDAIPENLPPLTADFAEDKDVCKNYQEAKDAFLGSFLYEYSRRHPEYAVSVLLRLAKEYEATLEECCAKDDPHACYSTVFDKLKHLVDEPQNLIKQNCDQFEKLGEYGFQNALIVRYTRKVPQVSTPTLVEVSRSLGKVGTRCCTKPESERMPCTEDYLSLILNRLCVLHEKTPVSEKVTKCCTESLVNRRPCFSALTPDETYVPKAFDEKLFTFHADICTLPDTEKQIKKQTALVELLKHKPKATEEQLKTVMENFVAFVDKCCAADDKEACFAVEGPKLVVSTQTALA

OD450 (CHO细胞裂解液 [1]): 0.132 | OD450 (Vero细胞裂解液 [2]): 0.129 | OD450 (HEK293细胞裂解液 [3]): 0.142 | OD450 (牛血清白蛋白(BSA) (bovine) [4]): 1.12 | OD450 (牛血清白蛋白(BSA) (bovine) [5]): 1.69 | OD450 (牛血清白蛋白(BSA) (bovine) [6]): 0.684 and 0.692 | OD450 (牛血清白蛋白(BSA) (bovine) [7]): 0.357 | OD450 (平均值) (牛血清白蛋白(BSA) (bovine) [8]): 0.408 | OD450 (牛血清白蛋白(BSA) (bovine) [9]): 0.9 | OD450 (牛血清白蛋白(BSA) (bovine) [10]): 0.175 | OD450 (牛血清白蛋白(BSA) (bovine) [11]): 0.537 | OD450 (牛血清白蛋白(BSA) (bovine) [12]): 1.6 | OD450 (CHO细胞裂解液 [13]): 0.141 | OD450 (Vero细胞裂解液 [14]): 0.136 | OD450 (HEK293细胞裂解液 [15]): 0.136 | OD450 (牛血清白蛋白(BSA) (bovine) [16]): 0.312 and 0.315 | OD450 (平均值) (牛血清白蛋白(BSA) (bovine) [17]): 0.303 | OD450 (平均值) (牛血清白蛋白(BSA) (bovine) [18]): 0.688 | OD450 (牛血清白蛋白(BSA) (bovine) [19]): 0.509 | OD450 (牛血清白蛋白(BSA) (bovine) [20]): 2.13 | OD450 (牛血清白蛋白(BSA) (bovine) [21]): 0.342 and 0.346 | OD450 (牛血清白蛋白(BSA) (bovine) [22]): 0.38 and 0.378 | OD450 (牛血清白蛋白(BSA) (bovine) [23]): 2.21 | OD450 (牛血清白蛋白(BSA) (bovine) [24]): 1.81 | OD450 (CHO细胞裂解液 [25]): 0.136 | OD450 (Vero细胞裂解液 [26]): 0.138 | OD450 (HEK293细胞裂解液 [27]): 0.132 | OD450 (CHO细胞裂解液 [28]): 0.134 | OD450 (Vero细胞裂解液 [29]): 0.14 | OD450 (HEK293细胞裂解液 [30]): 0.134 | OD450 (牛血清白蛋白(BSA) (bovine) [31]): 0.404 and 0.412 | OD450 (牛血清白蛋白(BSA) (bovine) [32]): 0.319 and 0.332 | OD450 (牛血清白蛋白(BSA) (bovine) [33]): 1.22 | OD450 (牛血清白蛋白(BSA) (bovine) [34]): 1.51 and 1.5 | OD450 (牛血清白蛋白(BSA) (bovine) [35]): 2.3
B1: BSA抗体B2 (antibody, V domains shown)
VH: VKLQESGGGLVKPGGSLKLSCAASGFTFSLYDESWVRQTPEKRLEWVAEIFLGVYRYVPESKVRFTMSRDNAKNTLYLQMSSLRSEDTAMYYCVRLCYWEPEVKKCWGQGTTVTVSS
VL: DIELTQSPLTLSVTIGQPASISCESDLSLKESLDWLLQRPGQSPKRLIYEDLNADCGVPDRFTGSGSGTDSTLKISRVEAEDLGVYYCEIKGTFRWSFGGGTKLEIK
